Our source for the percent of the receptor complexed with β-arrestin and CXCL12 removed from the medium (25 nM CXCL12, 16 hours values is article PMC11033958.

The target of assay [1] is purified ACKR3:CXCL12_(LRHQ) complex, ACKR3 phosphorylated in vitro by GRK5 (UniProt P25106). Kind of assay: pull-down; 1.1 µM purified ACKR3:LRHQ complex phosphorylated by 1.1 µM GRK2 or GRK5 (1 mM ATP, 20 min, room temperature), 2.2 µM purified β-arrestin1 or 2 added for 40 min; captured on M2 anti-FLAG resin at 4°C, washed in 50 mM HEPES pH 7.5, 150 mM NaCl, LMNG/CHS, eluted with 3×FLAG peptide; SDS-PAGE band densities, arrestin as percent of ACKR3.

Assay [2] addresses ACKR3_RlucII (N-terminally FLAG-tagged human ACKR3, residues 2–362, with a C-terminal fusion of Renilla luciferase II) (human) (UniProt P25106).
Assay [3] deals with purified ACKR3:CXCL12_(LRHQ) complex, ACKR3 phosphorylated in vitro by GRK2 (UniProt P25106). The assay is described as follows: pull-down; 1.1 µM purified ACKR3:LRHQ complex phosphorylated by 1.1 µM GRK2 or GRK5 (1 mM ATP, 20 min, room temperature), 2.2 µM purified β-arrestin1 or 2 added for 40 min; captured on M2 anti-FLAG resin at 4°C, washed in 50 mM HEPES pH 7.5, 150 mM NaCl, LMNG/CHS, eluted with 3×FLAG peptide; SDS-PAGE band densities, arrestin as percent of ACKR3.

Chain of CXCL12 (P48061 22-93): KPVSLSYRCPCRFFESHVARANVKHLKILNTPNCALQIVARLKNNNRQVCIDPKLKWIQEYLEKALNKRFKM

“bovine β-arrestin1 (from UniProt P17870 1-418) (natural protein)” displayed a percent of the receptor complexed with β-arrestin in assay [1] of 49%.
“CXCL12 (from UniProt P48061 22-93) (ligand)” showed a CXCL12 removed from the medium (25 nM CXCL12, 16 hours at 37°C) by WT HEK293A cells expressing ACKR3 RlucII, remaining chemokine by ELISA, against cells with empty vector in assay [2] of 64%.
As to “bovine β-arrestin2 (1–393) (from UniProt P32120 1-393) (domain or fragment)”, the percent of the receptor complexed with β-arrestin in assay [3] came to 14%; in assay [1], 73%.
